# Biological target: T1, CD3ε homodimer protein (human, UniProt P07766 23-126, limits assumed)
# T1 construct: also called CD3 (CD3ε)
# Test: SPR Biacore T200, CD3ε homodimer on chip;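 further: Light-chain single-residue variant antibodies injected over amine-coupled CD3ε homodimer on a CM4 chip at 25 °C, bound amount divided by that of the GLS3000-containing antibody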
# T1 sequence (P07766 23-126 limits assumed): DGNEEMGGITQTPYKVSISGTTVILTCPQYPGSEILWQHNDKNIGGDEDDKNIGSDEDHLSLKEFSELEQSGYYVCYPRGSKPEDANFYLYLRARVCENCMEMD
row,Binder,ratio of amount bound vs unaltered GLS3000
1,"GLS3000 V94H one-arm antibody (antibody, human IgG1, kappa, L234A L235A, N297A, name in Kabat numbering) heavy: QVQLVESGGGVVQPGRSLRLSCAASGFTFSNAWMHWVRQAPGKGLEWVAQIKAKSNNYATYYAESVKGRFTISRDDSKNSLYLQMNSLKTEDTAVYYCRYVHYGAYYGVDAWGQGTTVTVSSASTKGPSVFPLAPSSKSTSGGTAALGCLVKDYFPEPVTVSWNSGALTSGVHTFPAVLQSSGLYSLSSVVTVPSSSLGTQTYICNVNHKPSNTKVDKKVEPKSCDKTHTCPPCPAPEAAGGPSVFLFPPKPKDTLMISRTPEVTCVVVDVSHEDPEVKFNWYVDGVEVHNAKTKPREEQYASTYRVVSVLTVLHQDWLNGKEYKCKVSNKALPAPIEKTISKAKGQPREPQVYTLPPSRCELTKNQVSLSCAVKGFYPSDIAVEWESNGQPENNYKTTPPVLDSDGSFFLVSKLTVDKSRWQQGNVFSCSVMHEALHNHYTQKSLSLSPDYKDDDDK EPKSSDKTHTCPPCPAPELLGGPSVFLFPPKPKDTLMISRTPEVTCVVVDVSHEDPEVKFNWYVDGVEVHNAKTKPREEQYNSTYRVVSVLTVLHQDWLNGKEYKCKVSNKALPAPIEKTISKAKGQPREPQVCTLPPSRDELTKNQVSLWCLVKGFYPSDIAVEWESNGQPENNYKTTPPVLDSDGSFFLYSKLTVDKSRWQQGNVFSCSVMHEALHNRYTQKSLSLSP light: DIVMTQSPLSLPVTPGEPASISCRSSQSLVHSNRNTYLHWYQQKPGQAPRLLIYKVSNRFSGVPDRFSGSGSGTDFTLKISRVEAEDVGVYYCGQGTQHPYTFGQGTKLEIKRTVAAPSVFIFPPSDEQLKSGTASVVCLLNNFYPREAKVQWKVDNALQSGNSQESVTEQDSKDSTYSLSSTLTLSKADYEKHKVYACEVTHQGLSSPVTKSFNRGEC",0.78
2,"GLS3000 V94K one-arm antibody (antibody, human IgG1, kappa, L234A L235A, N297A, name in Kabat numbering) heavy: QVQLVESGGGVVQPGRSLRLSCAASGFTFSNAWMHWVRQAPGKGLEWVAQIKAKSNNYATYYAESVKGRFTISRDDSKNSLYLQMNSLKTEDTAVYYCRYVHYGAYYGVDAWGQGTTVTVSSASTKGPSVFPLAPSSKSTSGGTAALGCLVKDYFPEPVTVSWNSGALTSGVHTFPAVLQSSGLYSLSSVVTVPSSSLGTQTYICNVNHKPSNTKVDKKVEPKSCDKTHTCPPCPAPEAAGGPSVFLFPPKPKDTLMISRTPEVTCVVVDVSHEDPEVKFNWYVDGVEVHNAKTKPREEQYASTYRVVSVLTVLHQDWLNGKEYKCKVSNKALPAPIEKTISKAKGQPREPQVYTLPPSRCELTKNQVSLSCAVKGFYPSDIAVEWESNGQPENNYKTTPPVLDSDGSFFLVSKLTVDKSRWQQGNVFSCSVMHEALHNHYTQKSLSLSPDYKDDDDK EPKSSDKTHTCPPCPAPELLGGPSVFLFPPKPKDTLMISRTPEVTCVVVDVSHEDPEVKFNWYVDGVEVHNAKTKPREEQYNSTYRVVSVLTVLHQDWLNGKEYKCKVSNKALPAPIEKTISKAKGQPREPQVCTLPPSRDELTKNQVSLWCLVKGFYPSDIAVEWESNGQPENNYKTTPPVLDSDGSFFLYSKLTVDKSRWQQGNVFSCSVMHEALHNRYTQKSLSLSP light: DIVMTQSPLSLPVTPGEPASISCRSSQSLVHSNRNTYLHWYQQKPGQAPRLLIYKVSNRFSGVPDRFSGSGSGTDFTLKISRVEAEDVGVYYCGQGTQKPYTFGQGTKLEIKRTVAAPSVFIFPPSDEQLKSGTASVVCLLNNFYPREAKVQWKVDNALQSGNSQESVTEQDSKDSTYSLSSTLTLSKADYEKHKVYACEVTHQGLSSPVTKSFNRGEC",0.57

# Second part, the binder after the results:
row,ratio of amount bound vs unaltered GLS3000,Binder
1,0.66,"GLS3000 V94I one-arm antibody (antibody, human IgG1, kappa, L234A L235A, N297A, name in Kabat numbering) heavy: QVQLVESGGGVVQPGRSLRLSCAASGFTFSNAWMHWVRQAPGKGLEWVAQIKAKSNNYATYYAESVKGRFTISRDDSKNSLYLQMNSLKTEDTAVYYCRYVHYGAYYGVDAWGQGTTVTVSSASTKGPSVFPLAPSSKSTSGGTAALGCLVKDYFPEPVTVSWNSGALTSGVHTFPAVLQSSGLYSLSSVVTVPSSSLGTQTYICNVNHKPSNTKVDKKVEPKSCDKTHTCPPCPAPEAAGGPSVFLFPPKPKDTLMISRTPEVTCVVVDVSHEDPEVKFNWYVDGVEVHNAKTKPREEQYASTYRVVSVLTVLHQDWLNGKEYKCKVSNKALPAPIEKTISKAKGQPREPQVYTLPPSRCELTKNQVSLSCAVKGFYPSDIAVEWESNGQPENNYKTTPPVLDSDGSFFLVSKLTVDKSRWQQGNVFSCSVMHEALHNHYTQKSLSLSPDYKDDDDK EPKSSDKTHTCPPCPAPELLGGPSVFLFPPKPKDTLMISRTPEVTCVVVDVSHEDPEVKFNWYVDGVEVHNAKTKPREEQYNSTYRVVSVLTVLHQDWLNGKEYKCKVSNKALPAPIEKTISKAKGQPREPQVCTLPPSRDELTKNQVSLWCLVKGFYPSDIAVEWESNGQPENNYKTTPPVLDSDGSFFLYSKLTVDKSRWQQGNVFSCSVMHEALHNRYTQKSLSLSP light: DIVMTQSPLSLPVTPGEPASISCRSSQSLVHSNRNTYLHWYQQKPGQAPRLLIYKVSNRFSGVPDRFSGSGSGTDFTLKISRVEAEDVGVYYCGQGTQIPYTFGQGTKLEIKRTVAAPSVFIFPPSDEQLKSGTASVVCLLNNFYPREAKVQWKVDNALQSGNSQESVTEQDSKDSTYSLSSTLTLSKADYEKHKVYACEVTHQGLSSPVTKSFNRGEC"
2,1.05,"GLS3000 V94N one-arm antibody (antibody, human IgG1, kappa, L234A L235A, N297A, name in Kabat numbering) heavy: QVQLVESGGGVVQPGRSLRLSCAASGFTFSNAWMHWVRQAPGKGLEWVAQIKAKSNNYATYYAESVKGRFTISRDDSKNSLYLQMNSLKTEDTAVYYCRYVHYGAYYGVDAWGQGTTVTVSSASTKGPSVFPLAPSSKSTSGGTAALGCLVKDYFPEPVTVSWNSGALTSGVHTFPAVLQSSGLYSLSSVVTVPSSSLGTQTYICNVNHKPSNTKVDKKVEPKSCDKTHTCPPCPAPEAAGGPSVFLFPPKPKDTLMISRTPEVTCVVVDVSHEDPEVKFNWYVDGVEVHNAKTKPREEQYASTYRVVSVLTVLHQDWLNGKEYKCKVSNKALPAPIEKTISKAKGQPREPQVYTLPPSRCELTKNQVSLSCAVKGFYPSDIAVEWESNGQPENNYKTTPPVLDSDGSFFLVSKLTVDKSRWQQGNVFSCSVMHEALHNHYTQKSLSLSPDYKDDDDK EPKSSDKTHTCPPCPAPELLGGPSVFLFPPKPKDTLMISRTPEVTCVVVDVSHEDPEVKFNWYVDGVEVHNAKTKPREEQYNSTYRVVSVLTVLHQDWLNGKEYKCKVSNKALPAPIEKTISKAKGQPREPQVCTLPPSRDELTKNQVSLWCLVKGFYPSDIAVEWESNGQPENNYKTTPPVLDSDGSFFLYSKLTVDKSRWQQGNVFSCSVMHEALHNRYTQKSLSLSP light: DIVMTQSPLSLPVTPGEPASISCRSSQSLVHSNRNTYLHWYQQKPGQAPRLLIYKVSNRFSGVPDRFSGSGSGTDFTLKISRVEAEDVGVYYCGQGTQNPYTFGQGTKLEIKRTVAAPSVFIFPPSDEQLKSGTASVVCLLNNFYPREAKVQWKVDNALQSGNSQESVTEQDSKDSTYSLSSTLTLSKADYEKHKVYACEVTHQGLSSPVTKSFNRGEC"
3,0.44,"GLS3000 V94L one-arm antibody (antibody, human IgG1, kappa, L234A L235A, N297A, name in Kabat numbering) heavy: QVQLVESGGGVVQPGRSLRLSCAASGFTFSNAWMHWVRQAPGKGLEWVAQIKAKSNNYATYYAESVKGRFTISRDDSKNSLYLQMNSLKTEDTAVYYCRYVHYGAYYGVDAWGQGTTVTVSSASTKGPSVFPLAPSSKSTSGGTAALGCLVKDYFPEPVTVSWNSGALTSGVHTFPAVLQSSGLYSLSSVVTVPSSSLGTQTYICNVNHKPSNTKVDKKVEPKSCDKTHTCPPCPAPEAAGGPSVFLFPPKPKDTLMISRTPEVTCVVVDVSHEDPEVKFNWYVDGVEVHNAKTKPREEQYASTYRVVSVLTVLHQDWLNGKEYKCKVSNKALPAPIEKTISKAKGQPREPQVYTLPPSRCELTKNQVSLSCAVKGFYPSDIAVEWESNGQPENNYKTTPPVLDSDGSFFLVSKLTVDKSRWQQGNVFSCSVMHEALHNHYTQKSLSLSPDYKDDDDK EPKSSDKTHTCPPCPAPELLGGPSVFLFPPKPKDTLMISRTPEVTCVVVDVSHEDPEVKFNWYVDGVEVHNAKTKPREEQYNSTYRVVSVLTVLHQDWLNGKEYKCKVSNKALPAPIEKTISKAKGQPREPQVCTLPPSRDELTKNQVSLWCLVKGFYPSDIAVEWESNGQPENNYKTTPPVLDSDGSFFLYSKLTVDKSRWQQGNVFSCSVMHEALHNRYTQKSLSLSP light: DIVMTQSPLSLPVTPGEPASISCRSSQSLVHSNRNTYLHWYQQKPGQAPRLLIYKVSNRFSGVPDRFSGSGSGTDFTLKISRVEAEDVGVYYCGQGTQLPYTFGQGTKLEIKRTVAAPSVFIFPPSDEQLKSGTASVVCLLNNFYPREAKVQWKVDNALQSGNSQESVTEQDSKDSTYSLSSTLTLSKADYEKHKVYACEVTHQGLSSPVTKSFNRGEC"
4,0.44,"GLS3000 V94M one-arm antibody (antibody, human IgG1, kappa, L234A L235A, N297A, name in Kabat numbering) heavy: QVQLVESGGGVVQPGRSLRLSCAASGFTFSNAWMHWVRQAPGKGLEWVAQIKAKSNNYATYYAESVKGRFTISRDDSKNSLYLQMNSLKTEDTAVYYCRYVHYGAYYGVDAWGQGTTVTVSSASTKGPSVFPLAPSSKSTSGGTAALGCLVKDYFPEPVTVSWNSGALTSGVHTFPAVLQSSGLYSLSSVVTVPSSSLGTQTYICNVNHKPSNTKVDKKVEPKSCDKTHTCPPCPAPEAAGGPSVFLFPPKPKDTLMISRTPEVTCVVVDVSHEDPEVKFNWYVDGVEVHNAKTKPREEQYASTYRVVSVLTVLHQDWLNGKEYKCKVSNKALPAPIEKTISKAKGQPREPQVYTLPPSRCELTKNQVSLSCAVKGFYPSDIAVEWESNGQPENNYKTTPPVLDSDGSFFLVSKLTVDKSRWQQGNVFSCSVMHEALHNHYTQKSLSLSPDYKDDDDK EPKSSDKTHTCPPCPAPELLGGPSVFLFPPKPKDTLMISRTPEVTCVVVDVSHEDPEVKFNWYVDGVEVHNAKTKPREEQYNSTYRVVSVLTVLHQDWLNGKEYKCKVSNKALPAPIEKTISKAKGQPREPQVCTLPPSRDELTKNQVSLWCLVKGFYPSDIAVEWESNGQPENNYKTTPPVLDSDGSFFLYSKLTVDKSRWQQGNVFSCSVMHEALHNRYTQKSLSLSP light: DIVMTQSPLSLPVTPGEPASISCRSSQSLVHSNRNTYLHWYQQKPGQAPRLLIYKVSNRFSGVPDRFSGSGSGTDFTLKISRVEAEDVGVYYCGQGTQMPYTFGQGTKLEIKRTVAAPSVFIFPPSDEQLKSGTASVVCLLNNFYPREAKVQWKVDNALQSGNSQESVTEQDSKDSTYSLSSTLTLSKADYEKHKVYACEVTHQGLSSPVTKSFNRGEC"

# Reference: patent publication US20260049138A1 (Chugai, published 2026)
